Measurements as given in PMC9054013, “FCHO controls AP2’s initiating role in endocytosis through a PtdIns(4,5)P2-dependent switch” (Science Advances, 2022).
Blank lines part the entries; values can stand above or below the binder they belong to.

Tests used:
[1] = target: T1, Cμ2 (μ2 residues 160 to 435) (UniProt P84092 160-435); assay: ITC; Cμ2 with FCHO2 constructs or peptides; 100 mM tris pH 7.4, 150 mM NaCl, 0.25 mM TCEP; 12°C; Nano ITC; settings: both partners purified
T1 construct: AP2 μ2 subunit, C-terminal subdomain, residues 160 to 435; in the chimera crystals Cμ2 carries an N-terminal His6 tag or a thrombin-cleaved GST tag; also called His6μ2 (residues 160 to 435) wt; isolated Cμ2; source: E. coli BL21 plyS, purified (Ni-NTA, Superdex 200)
T1 sequence (looked up): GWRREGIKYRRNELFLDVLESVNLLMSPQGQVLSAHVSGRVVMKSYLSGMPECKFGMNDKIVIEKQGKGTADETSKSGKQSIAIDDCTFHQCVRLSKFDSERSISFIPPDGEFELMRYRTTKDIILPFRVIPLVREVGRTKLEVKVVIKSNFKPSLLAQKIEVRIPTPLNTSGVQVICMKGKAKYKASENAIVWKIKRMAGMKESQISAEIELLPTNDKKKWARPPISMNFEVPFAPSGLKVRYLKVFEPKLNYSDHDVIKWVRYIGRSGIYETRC

[2] = target: T2, AP2 α-appendage (residues 695 to 938) (UniProt P17427 695-938); assay: ITC; α-appendage or β2-appendage with C block peptides; 100 mM tris pH 7.4, 150 mM NaCl, 0.25 mM TCEP; 12°C; peptides 1 to 5 mM titrated; settings: both partners purified
T2 construct: AP2 α subunit (α2), appendage, residues 695 to 938; also called α2 ear; pGEX4T2α-appendage; source: E. coli BL21 plyS, purified (GST beads, thrombin, Superdex 200)
T2 sequence (P17427 695-938): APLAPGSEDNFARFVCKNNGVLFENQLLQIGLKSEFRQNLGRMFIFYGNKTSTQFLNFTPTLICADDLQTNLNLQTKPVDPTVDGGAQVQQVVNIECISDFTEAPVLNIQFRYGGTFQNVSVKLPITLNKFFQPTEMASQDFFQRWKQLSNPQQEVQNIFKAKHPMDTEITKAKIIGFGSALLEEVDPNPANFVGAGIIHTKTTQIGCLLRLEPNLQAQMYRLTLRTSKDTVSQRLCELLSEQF

fold reduction of binding against FCHO2-N1+N2 wild type [1]: 5 fold
B1: FCHO2-N1+N2 EEK mutant (domain or fragment)
chain: NIPDVDAAGYSIAPETNQNDTKENHFYSSSDSDSEDEEPKKYRIEIKPMHPNNSHHTMASLDELKVSIGNITLSPAISRHS

Kd [2]: > 500 µM
Binder: QSEEQVSKNLFGPPAAAAFDHED (peptide, UniProt O14526 426-448, looked up) [FCHO1 C peptide, LES to AAA]
